Test system: Escherichia coli TOP10
Test: shrunken log2 fold change of peptide-encoding DNA abundance (4.5 h post-induction vs induction); higher = less antimicrobial activity (less host growth inhibition)
Details: time post-induction: 4.5 h; library: site-saturation at positions 5, 18, 19, 20
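Also: peptides expressed intracellularly from a pBAD plasmid library in pooled LB shake-flask culture, induced with 0.3% L-arabinose, DNA abundance read by NGS, three biological replicates, DESeq2 with apeglm shrinkage.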

## RRIRDRPPRLPRPRPRPRKNPRP
  shrunken log2 fold change: 0.244

## RRIRLRPPRLPRPRPRPLQVPRP
  shrunken log2 fold change: 0.109

## RRIRPRPPRLPRPRPRPHRLPRP
  shrunken log2 fold change: -0.0226

## RRIRFRPPRLPRPRPRPASGPRP
  shrunken log2 fold change: 0.206

## RRIRVRPPRLPRPRPRPDCPPRP
  shrunken log2 fold change: -0.104

## RRIRFRPPRLPRPRPRPWACPRP
  shrunken log2 fold change: -0.15

## RRIRIRPPRLPRPRPRPVWMPRP
  shrunken log2 fold change: 0.11

## RRIRDRPPRLPRPRPRPGFTPRP
  shrunken log2 fold change: 0.125

## RRIRYRPPRLPRPRPRPLYQPRP
  shrunken log2 fold change: -0.13

## RRIRFRPPRLPRPRPRPPIHPRP
  shrunken log2 fold change: -0.255

## RRIRMRPPRLPRPRPRPDVQPRP
  shrunken log2 fold change: -0.00142

## RRIRERPPRLPRPRPRPLFMPRP
  shrunken log2 fold change: -0.222

## RRIRTRPPRLPRPRPRPWPIPRP
  shrunken log2 fold change: 0.00716

## RRIRQRPPRLPRPRPRPHRAPRP
  shrunken log2 fold change: -0.137

## RRIRNRPPRLPRPRPRPYEMPRP
  shrunken log2 fold change: -0.0417

## RRIRGRPPRLPRPRPRPKMKPRP
  shrunken log2 fold change: 0.723

## RRIRMRPPRLPRPRPRPLKLPRP
  shrunken log2 fold change: 0.0525

## RRIRIRPPRLPRPRPRPTWMPRP
  shrunken log2 fold change: -0.306

## RRIRWRPPRLPRPRPRPQACPRP
  shrunken log2 fold change: 0.145

## RRIRARPPRLPRPRPRPCWEPRP
  shrunken log2 fold change: 0.755

## RRIRWRPPRLPRPRPRPEISPRP
  shrunken log2 fold change: -0.161

## RRIRIRPPRLPRPRPRPFPIPRP
  shrunken log2 fold change: 0.0234

## RRIRRRPPRLPRPRPRPNTRPRP
  shrunken log2 fold change: 0.162

## RRIRQRPPRLPRPRPRPIFDPRP
  shrunken log2 fold change: -0.0877

## RRIRSRPPRLPRPRPRPQSYPRP
  shrunken log2 fold change: 0.107

## RRIRQRPPRLPRPRPRPTEVPRP
  shrunken log2 fold change: -0.018

## RRIRHRPPRLPRPRPRPNMAPRP
  shrunken log2 fold change: -0.0808

## RRIRKRPPRLPRPRPRPEILPRP
  shrunken log2 fold change: 0.728

## RRIRPRPPRLPRPRPRPDEAPRP
  shrunken log2 fold change: -0.152

## RRIRFRPPRLPRPRPRPFYDPRP
  shrunken log2 fold change: -0.0631

## RRIRPRPPRLPRPRPRPHTMPRP
  shrunken log2 fold change: -0.143

## RRIRDRPPRLPRPRPRPWLFPRP
  shrunken log2 fold change: 0.0977

## RRIRKRPPRLPRPRPRPEYDPRP
  shrunken log2 fold change: 1.13

## RRIRGRPPRLPRPRPRPGMSPRP
  shrunken log2 fold change: 0.417

## RRIRQRPPRLPRPRPRPEKYPRP
  shrunken log2 fold change: -0.304

## RRIRMRPPRLPRPRPRPEYLPRP
  shrunken log2 fold change: -0.082

## RRIRLRPPRLPRPRPRPTFQPRP
  shrunken log2 fold change: -0.098

## RRIRHRPPRLPRPRPRPDEEPRP
  shrunken log2 fold change: -0.0946

## RRIRWRPPRLPRPRPRPFATPRP
  shrunken log2 fold change: 0.834

## RRIRWRPPRLPRPRPRPIMLPRP
  shrunken log2 fold change: 0.464

## RRIRQRPPRLPRPRPRPKMPPRP
  shrunken log2 fold change: -0.0283

## RRIRMRPPRLPRPRPRPHHYPRP
  shrunken log2 fold change: -0.51

## RRIRKRPPRLPRPRPRPFTKPRP
  shrunken log2 fold change: -0.0833

## RRIRGRPPRLPRPRPRPMWLPRP
  shrunken log2 fold change: 0.25

## RRIRMRPPRLPRPRPRPFVYPRP
  shrunken log2 fold change: -0.00869

## RRIRQRPPRLPRPRPRPSVVPRP
  shrunken log2 fold change: 0.082

## RRIRYRPPRLPRPRPRPQQFPRP
  shrunken log2 fold change: -0.397

## RRIRQRPPRLPRPRPRPPWPPRP
  shrunken log2 fold change: 0.429

## RRIRIRPPRLPRPRPRPCHTPRP
  shrunken log2 fold change: -0.0495

## RRIRQRPPRLPRPRPRPQFPPRP
  shrunken log2 fold change: -0.202

## RRIRKRPPRLPRPRPRPCLFPRP
  shrunken log2 fold change: 0.0241

## RRIRDRPPRLPRPRPRPDQHPRP
  shrunken log2 fold change: 0.132

## RRIRQRPPRLPRPRPRPKGCPRP
  shrunken log2 fold change: -0.0208

## RRIRCRPPRLPRPRPRPICSPRP
  shrunken log2 fold change: 0.0973

## RRIRIRPPRLPRPRPRPAGQPRP
  shrunken log2 fold change: 0.0455

## RRIRERPPRLPRPRPRPCPEPRP
  shrunken log2 fold change: -0.324

## RRIRPRPPRLPRPRPRPQSWPRP
  shrunken log2 fold change: -0.134

## RRIRMRPPRLPRPRPRPPDHPRP
  shrunken log2 fold change: 0.456

## RRIRLRPPRLPRPRPRPCQYPRP
  shrunken log2 fold change: -0.448

## RRIRIRPPRLPRPRPRPILRPRP
  shrunken log2 fold change: -0.484

## RRIRMRPPRLPRPRPRPHICPRP
  shrunken log2 fold change: -0.0377

## RRIRQRPPRLPRPRPRPWPQPRP
  shrunken log2 fold change: -0.0188

## RRIRNRPPRLPRPRPRPCCHPRP
  shrunken log2 fold change: -0.00931

## RRIRERPPRLPRPRPRPAAPPRP
  shrunken log2 fold change: 0.504

## RRIRLRPPRLPRPRPRPKGNPRP
  shrunken log2 fold change: -0.0951

## RRIRMRPPRLPRPRPRPLFEPRP
  shrunken log2 fold change: 0.633

## RRIRGRPPRLPRPRPRPPISPRP
  shrunken log2 fold change: 0.163

## RRIRMRPPRLPRPRPRPSFFPRP
  shrunken log2 fold change: 0.0666

## RRIRGRPPRLPRPRPRPMVWPRP
  shrunken log2 fold change: 0.156

## RRIRIRPPRLPRPRPRPHGMPRP
  shrunken log2 fold change: 0.0429

## RRIRARPPRLPRPRPRPWLFPRP
  shrunken log2 fold change: 0.547

## RRIRMRPPRLPRPRPRPFDEPRP
  shrunken log2 fold change: -0.0062

## RRIRNRPPRLPRPRPRPSPLPRP
  shrunken log2 fold change: -0.334

## RRIRMRPPRLPRPRPRPQWRPRP
  shrunken log2 fold change: 1.5

## RRIRGRPPRLPRPRPRPEGHPRP
  shrunken log2 fold change: 1.8

## RRIRERPPRLPRPRPRPHKQPRP
  shrunken log2 fold change: -0.0572

## RRIRKRPPRLPRPRPRPGVQPRP
  shrunken log2 fold change: 0.228

## RRIRIRPPRLPRPRPRPKKVPRP
  shrunken log2 fold change: -0.291

## RRIRKRPPRLPRPRPRPREEPRP
  shrunken log2 fold change: 1.2

## RRIRFRPPRLPRPRPRPEWCPRP
  shrunken log2 fold change: 0.0522

## RRIRERPPRLPRPRPRPIDMPRP
  shrunken log2 fold change: -0.123

## RRIRKRPPRLPRPRPRPFFGPRP
  shrunken log2 fold change: 0.304

## RRIRLRPPRLPRPRPRPGPEPRP
  shrunken log2 fold change: 0.685

## RRIRLRPPRLPRPRPRPTTWPRP
  shrunken log2 fold change: 0.0965

## RRIRFRPPRLPRPRPRPFANPRP
  shrunken log2 fold change: -0.124

## RRIRARPPRLPRPRPRPWRLPRP
  shrunken log2 fold change: 0.466

## RRIRQRPPRLPRPRPRPVNGPRP
  shrunken log2 fold change: -0.0109

## RRIRERPPRLPRPRPRPGFFPRP
  shrunken log2 fold change: -0.191

## RRIRLRPPRLPRPRPRPMFFPRP
  shrunken log2 fold change: -0.381

## RRIRPRPPRLPRPRPRPQARPRP
  shrunken log2 fold change: 0.208

## RRIRYRPPRLPRPRPRPFWMPRP
  shrunken log2 fold change: -0.297

## RRIRDRPPRLPRPRPRPNVHPRP
  shrunken log2 fold change: -0.303

## RRIRERPPRLPRPRPRPQDRPRP
  shrunken log2 fold change: -0.167

## RRIRGRPPRLPRPRPRPLWHPRP
  shrunken log2 fold change: 0.552

## RRIRLRPPRLPRPRPRPGGFPRP
  shrunken log2 fold change: 0.176

## RRIRLRPPRLPRPRPRPMTEPRP
  shrunken log2 fold change: -0.0455

## RRIRERPPRLPRPRPRPQSPPRP
  shrunken log2 fold change: -0.062

## RRIRGRPPRLPRPRPRPSKQPRP
  shrunken log2 fold change: -0.0392

## RRIRARPPRLPRPRPRPSHIPRP
  shrunken log2 fold change: -0.523

## RRIRTRPPRLPRPRPRPIIKPRP
  shrunken log2 fold change: -0.67

## RRIRTRPPRLPRPRPRPHCKPRP
  shrunken log2 fold change: -0.222

## RRIRDRPPRLPRPRPRPHDHPRP
  shrunken log2 fold change: 0.00042

## RRIRFRPPRLPRPRPRPCYTPRP
  shrunken log2 fold change: -0.239

## RRIRARPPRLPRPRPRPLMVPRP
  shrunken log2 fold change: 0.0926

## RRIRYRPPRLPRPRPRPCVGPRP
  shrunken log2 fold change: -1.87

## RRIRDRPPRLPRPRPRPDDLPRP
  shrunken log2 fold change: 0.00447

## RRIRMRPPRLPRPRPRPVENPRP
  shrunken log2 fold change: -0.0952

## RRIRFRPPRLPRPRPRPVKHPRP
  shrunken log2 fold change: -0.222

## RRIRGRPPRLPRPRPRPDIRPRP
  shrunken log2 fold change: 0.454

## RRIRPRPPRLPRPRPRPHQSPRP
  shrunken log2 fold change: 0.238

## RRIRKRPPRLPRPRPRPSDYPRP
  shrunken log2 fold change: -0.08

## RRIRGRPPRLPRPRPRPYIYPRP
  shrunken log2 fold change: -0.13

## RRIRERPPRLPRPRPRPDPKPRP
  shrunken log2 fold change: 0.00358

## RRIRGRPPRLPRPRPRPRMFPRP
  shrunken log2 fold change: 0.837

## RRIRDRPPRLPRPRPRPRHRPRP
  shrunken log2 fold change: 0.375

## RRIRKRPPRLPRPRPRPHVHPRP
  shrunken log2 fold change: -0.105

## RRIRMRPPRLPRPRPRPFWQPRP
  shrunken log2 fold change: 0.341

## RRIRARPPRLPRPRPRPVYEPRP
  shrunken log2 fold change: -0.426

## RRIRVRPPRLPRPRPRPPHDPRP
  shrunken log2 fold change: 0.65

## RRIRDRPPRLPRPRPRPLAGPRP
  shrunken log2 fold change: 0.121

## RRIRERPPRLPRPRPRPKGLPRP
  shrunken log2 fold change: 0.0211

## RRIRRRPPRLPRPRPRPTKNPRP
  shrunken log2 fold change: 0.395

## RRIRYRPPRLPRPRPRPIFQPRP
  shrunken log2 fold change: -0.568

## RRIRVRPPRLPRPRPRPPEAPRP
  shrunken log2 fold change: -0.0358

## RRIRFRPPRLPRPRPRPFTKPRP
  shrunken log2 fold change: -0.411
